A short description of the data set: total protein half-life in vivo (active degradation + dilution); higher = more stable protein.
[1] abbreviates: E. coli NCM3722 delta-clpP delta-lon delta-hslV, growth: N-lim chemostat, doubling time 6 h.
[2] abbreviates: E. coli NCM3722 delta-clpP, growth: N-lim chemostat, doubling time 6 h.
Setting [3] is: E. coli NCM3722 delta-hslV, growth: N-lim chemostat, doubling time 6 h.
Setting [4] is: E. coli NCM3722 delta-lon, growth: N-lim chemostat, doubling time 6 h.
The mark [5] stands for this setting: E. coli NCM3722 delta-smpB, growth: N-lim chemostat, doubling time 6 h.
[6] abbreviates: wild type E. coli NCM3722, growth: C-lim chemostat, doubling time 3 h.
Setting [7] is: wild type E. coli NCM3722, growth: C-lim chemostat, doubling time 6 h.
Where [8] appears, read: wild type E. coli NCM3722, growth: C-lim chemostat, doubling time 12 h.
[9] abbreviates: wild type E. coli NCM3722, growth: N-lim chemostat, doubling time 6 h.
Setting [10] is: wild type E. coli NCM3722, growth: N-lim chemostat, doubling time 12 h.
Setting [11] is: wild type E. coli NCM3722, growth: P-lim chemostat, doubling time 6 h.
The mark [12] stands for this setting: wild type E. coli NCM3722, growth: P-lim chemostat, doubling time 12 h.

± gives the standard deviation of the averaged measurements.

As to “MQGKALQDFVIDKIDDLKGQDIIALDVQGKSSITDCMIICTGTSSRHVMSIADHVVQESRAAGLLPLGVEGENSADWIVVDLGDVIVHVMQEESRRLYELEKLWS [P0AAT6]”, the “total protein half-life in vivo” value stood at 6.28 ± 1.2 h under setting [1]; 3.63 ± 1.7 h under setting [2]; 2.21 ± 0.063 h under setting [3]; 5.5 ± 0.84 h under setting [4]; 2.65 ± 0.19 h under setting [5]; 2.6 ± 0.59 h under setting [6]. In addition, the “total protein half-life in vivo” value under setting [7] was 3.58 h; the “total protein half-life in vivo” value under setting [8] was over 16 h; the “total protein half-life in vivo” value under setting [9] was determined as 2.72 h; the “total protein half-life in vivo” value under setting [10] is 3.51 ± 0.17 h; the “total protein half-life in vivo” value under setting [11] worked out at 2.2 h; the “total protein half-life in vivo” value under setting [12] was 4.01 h.
Turning to “MSTEIKTQVVVLGAGPAGYSAAFRCADLGLETVIVERYNTLGGVCLNVGCIPSKALLHVAKVIEEAKALAEHGIVFGEPKTDIDKIRTWKEKVINQLTGGLAGMAKGRKVKVVNGLGKFTGANTLEVEGENGKTVINFDNAIIAAGSRPIQLPFIPHEDPRIWDSTDALELKEVPERLLVMGGGIIGLEMGTVYHALGSQIDVVEMFDQVIPAADKDIVKVFTKRISKKFNLMLETKVTAVEAKEDGIYVTMEGKKAPAEPQRYDAVLVAIGRVPNGKNLDAGKAGVEVDDRGFIRVDKQLRTNVPHIFAIGDIVGQPMLAHKGVHEGHVAAEVIAGKKHYFDPKVIPSIAYTEPEVAWVGLTEKEAKEKGISYETATFPWAASGRAIASDCADGMTKLIFDKESHRVIGGAIVGTNGGELLGEIGLAIEMGCDAEDIALTIHAHPTLHESVGLAAEVFEGSITDLPNPKAKKK [P0A9P0]”, the “total protein half-life in vivo” value amounted to 6.89 ± 0.093 h under setting [1]; 6.28 ± 0.24 h under setting [2]; 6.35 ± 0.43 h under setting [3]; 6.43 ± 0.36 h under setting [4]; 6.01 ± 0.24 h under setting [5]; 3.11 ± 0.081 h under setting [6]. In addition, the “total protein half-life in vivo” value turned out to be 6.68 ± 0.33 h under setting [7]; 12.6 ± 1.1 h under setting [8]; 6.23 ± 0.55 h under setting [9]; 13.1 ± 0.57 h under setting [10]; 6.11 ± 0.12 h under setting [11]; 14.4 ± 0.26 h under setting [12].
As for “MKMIEVVAAIIERDGKILLAQRPAQSDQAGLWEFAGGKVEPDESQRQALVRELREELGIEATVGEYVASHQREVSGRIIHLHAWHVPDFHGTLQAHEHQALVWCSPEEALQYPLAPADIPLLEAFMALRAARPAD”, the “total protein half-life in vivo” value under setting [1] was determined as 4.73 h; the “total protein half-life in vivo” value under setting [2] is 4.63 h; the “total protein half-life in vivo” value under setting [4] was 5.61 h; the “total protein half-life in vivo” value under setting [5] worked out at 4.07 h; the “total protein half-life in vivo” value under setting [6] was found to be 3.25 h; the “total protein half-life in vivo” value under setting [7] was 4.61 ± 0.59 h. The “total protein half-life in vivo” value was 8.63 h under setting [8]; 3.82 h under setting [9]; 6.31 ± 0.54 h under setting [10]; 4.59 h under setting [11]; 8.52 ± 0.99 h under setting [12].
“MMSTTLFKDFTFEAAHRLPHVPEGHKCGRLHGHSFMVRLEITGEVDPHTGWIIDFAELKAAFKPTYERLDHHYLNDIPGLENPTSEVLAKWIWDQVKPVVPLLSAVMVKETCTAGCIYRGE”: the “total protein half-life in vivo” value reads like this: under setting [1], 4.72 ± 1 h; under setting [2], 6.75 ± 0.54 h; under setting [3], 5.07 h; under setting [4], 6.5 ± 0.67 h; under setting [5], 5.53 ± 0.14 h; under setting [7], 6.53 ± 0.12 h. Moreover, the “total protein half-life in vivo” value under setting [8] was determined as 12.7 ± 0.82 h; the “total protein half-life in vivo” value under setting [9] came to 7.08 h; the “total protein half-life in vivo” value under setting [10] came to 13.1 ± 1.2 h; the “total protein half-life in vivo” value under setting [11] amounted to 6.75 ± 0.27 h; the “total protein half-life in vivo” value under setting [12] came out at 13.2 h.
For “MALLDFFLSRKKNTANIAKERLQIIVAERRRSDAEPHYLPQLRKDILEVICKYVQIDPEMVTVQLEQKDGDISILELNVTLPEAEELK [P0A734]”, the “total protein half-life in vivo” value by setting is: under setting [1], 5.76 ± 0.51 h; under setting [2], 4.57 ± 0.13 h; under setting [4], 3.791 ± 0.018 h; under setting [5], 4.06 ± 0.14 h; under setting [6], 2.736 ± 0.016 h; under setting [7], 4.59 ± 0.27 h. Also, the “total protein half-life in vivo” value by setting is: under setting [8], 6.36 ± 0.066 h; under setting [9], 3.626 ± 0.022 h; under setting [10], 6.22 ± 0.13 h; under setting [11], 4.14 ± 1.5 h; under setting [12], 8.17 ± 0.36 h.
Turning to “MNSFNEGVVSPLLSFWRRSLMLAGALLLTACSHNSSLPPFTASGFAEDQGAVRIWRKDSGDNVHLLAVFSPWRSGDTTTREYRWQGDNLTLININVYSKPPVNIRARFDDRGDLSFMQRESDGEKQQLSNDQIDLYRYRADQIRQISDALRQGRVVLRQGRWHAMEQTVTTCEGQTIKPDLDSQAIAHIERRQSRSSVDVSVAWLEAPEGSQLLLVANSDFCRWQPNEKTF”, the “total protein half-life in vivo” value is, setting by setting: under setting [1], 6.47 ± 1.2 h; under setting [2], 7.12 ± 0.33 h; under setting [3], 6.4 h; under setting [4], 6.98 h; under setting [5], 6.11 ± 0.48 h; under setting [6], 3.17 ± 0.14 h. Further, the “total protein half-life in vivo” value reads like this: under setting [8], 11.2 h; under setting [9], 6.3 ± 0.074 h; under setting [10], 13.2 ± 1.6 h; under setting [11], 6.31 ± 0.4 h; under setting [12], 14.1 ± 1.4 h.
With “MDKFDANRRKLLALGGVALGAAILPTPAFATLSTPRPRILTLNNLHTGESIKAEFFDGRGYIQEELAKLNHFFRDYRANKIKSIDPGLFDQLYRLQGLLGTRKPVQLISGYRSIDTNNELRARSRGVAKKSYHTKGQAMDFHIEGIALSNIRKAALSMRAGGVGYYPRSNFVHIDTGPARHW [P0AB06]”, the “total protein half-life in vivo” value by setting is: under setting [1], 3.83 ± 1.1 h; under setting [3], 2.76 ± 2.8 h; under setting [4], 1 ± 0.91 h; under setting [5], 1.8 ± 0.088 h; under setting [6], 0.68 ± 0.53 h; under setting [7], 2.67 ± 0.29 h. The “total protein half-life in vivo” value worked out at 6.36 ± 2 h under setting [8]; 1.97 ± 0.11 h under setting [9]; 1.81 ± 1.2 h under setting [10]; 1.82 ± 0.81 h under setting [11]; 2.46 ± 0.46 h under setting [12].

The record behind these values is the supplement of paper PMC11246515.
